The results in this text go back to publication PMC8807725, “EPHA2 mediates PDGFA activity and functions together with PDGFRA as prognostic marker and therapeutic target in glioblastoma” (Signal Transduction and Targeted Therapy, 2022).

The target in this test is T1, recombinant human PDGF-AA (human, UniProt P04085 87-211).
T1 construct: Platelet-derived growth factor subunit A (PDGFA), human, recombinant homodimer PDGF-AA; Added to cells at 100 ng/ml; Commercial PDGF-AA is normally the mature chain; also called recombinant human PDGFA homodimer; source: recombinant human protein
Kind of test: ITC; Microcal iTC200; recombinant human receptor extracellular domain and recombinant human PDGF-AA. The conditions noted are these: both partners purified.

B1: recombinant human PDGFRA extracellular domain fused with IgG Fc (rhRA-ECD-Fc) (Fc fusion, UniProt P16234 24-528, looked up)
chain: QLSLPSILPNENEKVVQLNSSFSLRCFGESEVSWQYPMSEEESSDVEIRNEENNSGLFVTVLEVSSASAAHTGLYTCYYNHTQTEENELEGRHIYIYVPDPDVAFVPLGMTDYLVIVEDDDSAIIPCRTTDPETPVTLHNSEGVVPASYDSRQGFNGTFTVGPYICEATVKGKKFQTIPFNVYALKATSELDLEMEALKTVYKSGETIVVTCAVFNNEVVDLQWTYPGEVKGKGITMLEEIKVPSIKLVYTLTVPEATVKDSGDYECAARQATREVKEMKKVTISVHEKGFIEIKPTFSQLEAVNLHEVKHFVVEVRAYPPPRISWLKNNLTLIENLTEITTDVEKIQEIRYRSKLKLIRAKEEDSGHYTIVAQNEDAVKSYTFELLTQVPSSILDLVDDHHGSTGGQTVRCTAEGTPLPDIEWMICKDIKKCNNETSWTILANNVSNIITEIHSRDRSTVEGRVTFAKVEETIAVRCLAKNLLGAENRELKLVAPTLRSELTVA
notes: Platelet-derived growth factor receptor alpha (PDGFRA), human, extracellular domain; Species and subclass of the IgG Fc, construct limits and supplier are not in the main text; also called recombinant PDGFRA extracellular domain; source: recombinant human protein
Turning to B1, the dH was -1070 ± 117.
